# Assay results published in the nanobody polyreactivity screen of Harvey et al. (2022).
# Assay: yeast display, Sf9 membrane polyspecificity reagent, FACS + sequencing; frameworks hold sequencing errors
# In short: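 A nanobody's polyreactivity label depends on the gate it was sorted from. Yeast display cells were stained with 10% biotinylated, detergent-solubilized Sf9 membrane reagent for 1 hour at 4 °C, enriched on streptavidin microbeads and sorted by FACS. The low and high (top ~1%) gates were set on anti-HA fluorescence for expression and streptavidin fluorescence for reagent binding.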
row,Sequence,polyreactivity (PSR sort gate)
1,QVQLVESGGGLVQAGGSLRLSCAASGSIFGDNVMGWYRPAPGKERELVAAISRSGGSTYYADSVKGRFTISRDNAKNTVYVEMNSLIPEDSSVYYCAARYWSWRSFKVDYWGQGTQVTVSS,high polyreactivity
2,QVQLVESGGGLVQAGGSLRLSCAASGSIFGEYAMGWYRQAPGKERELVAGITSDGSTNYADSVKGRFTISRDNAKNTVYLQMNSLKQEDTAVYYCAAAGYVYHWAPRGSRYYYWGQGTQVTVSS,low polyreactivity
3,QVQLVESGGGLVQAGGSLRLSCAASGSIFGFNALGWYRQAPGKERELVAAINNGGSTNYADSVKGRFTISRDNATNTVYLQMNSLKPEDTAVYYCAARLNYIRRGYWGQGTQVTVSS,high polyreactivity
4,QVQLVESGGGLVQAGGSLRLSCAASGSIFGFNAMGWYRQAPGKERELVAAINNGGSTNYADSVKGRFTISRDNAKNTVYLQMNSLKPEDTAVYYCAARLNYIRRGYWGQGTQVTVSS,high polyreactivity
5,QVQLVESGGGLVQAGGSLRLSCAASGSIFGFNAMGWYRQAPGKERELVAAISGRGTGTYYADSVKGRFTISRDNAKNTVYLQMNSLKPEDTAVYYCYTYYYWGQGTQVTVSS,high polyreactivity
6,QVQLVESGGGLVQAGGSLRLSCAASGSIFGFNAMGWYRQAPGKERELVAAISSGGITNYADSVKGRFTISRDNAKNTVSLQMNSLKPEVTAVYYCAAASESNWSFNYWGQGTQVTVSS,low polyreactivity
7,QVQLVESGGGLVQAGGSLRLSCAASGSIFGFNAMGWYRQAPGKERELVAAISSGSTYYADSVKGRFTISRDNAKNTVYLQMNRLKPEDTAVYYCAATTGYSWYGYWGQGTQVTVSS,low polyreactivity
8,QVQLVESGGGLVQAGGSLRLSCAASGSIFGFNTMGWYRQAPGKERELVATINRSGGSTYYADSVKGRFTISRDNAKNTVYVQINSLKPEDTAVYYCAKDVWRHYMNLYDYWGQGTQVTVSS,low polyreactivity
9,QVQLVESGGGLVQAGGSLRLSCAASGSIFGFYAKGWSRQAPGKEWELVAAITSGDSTHYADSVKGRFTISRDNAKNTVYLQMKSLKPEDTAVNYCAASAPYRYYRSAYSYWGLGTQVTVSS,low polyreactivity
10,QVQLVESGGGLVQAGGSLRLSCAASGSIFGFYAMGWSRQAPGKERELVAAITSGARTTYADSVKGRFTISRDNAKNTVYLQMNSLKPEDTAVYYSNADTGLGSLDFDKRDYWGQGTQVTVSS,low polyreactivity
11,QVQLVESGGGLVQAGGSLRLSCAASGSIFGFYAMGWYRQAPGKERELVAAITTGGSTYYADSVKGRFTISRDNAKNNVYFQMISLKPEDTAVYYCAKERWFPYERNDYWGQGTLVTVSS,low polyreactivity
12,QVQLVESGGGLVQAGGSLRLSCAASGSIFGFYAMGWYRQAPGKERELVAAITYSGGSTYADSVKGRFTISRDNAKNTVYLQMNSLKPEDTAVYYCAKDAELDITDAFYYWGQGTQVTVSS,low polyreactivity
13,QVQLVESGGGLVQAGGSLRLSCAASGSIFGFYAMGWYRQAPGKERELVASITISGGSTYYADSVKGRFTISRDNAKNTVYLQLNSLKPEDTAVYYCAARRFWDYNYWGQGTQVTVSS,low polyreactivity
14,QVQLVESGGGLVQAGGSLRLSCAASGSIFGGNAMGWYRQPPGKERELVAAITDGGNTNYADSVKGRFTISRDNAKNTVYLQMNSMKPEDTAVFYCAARIPGTYGGRYGYDYWGQGTQVTVSS,low polyreactivity
15,QVQLVESGGGLVQAGGSLRLSCAASGSIFGGNTMGWYRQAPGKERELVAAIRYSGGSTYYADSVKGRFTISRDNAKNTVYLQMNSLKPEDTAVYYCATSYRQYGYYWYDYWGQGTQVTVSS,high polyreactivity
16,QVQLVESGGGLVQAGGSLRLSCAASGSIFGGYAMGWYRPAPGKERELVAAISKTGGTTYYADSVKGRFTISRDNAKNTVYLQMKSLKPEDTAVYYCNAPKRYSGSAYGYGYWGQGTQVTVSS,high polyreactivity

row,Sequence,polyreactivity (PSR sort gate)
1,QVQLVESGGGLVQAGGSLRLSCAASGSIFGGYAMGWYRQAPCQDRELVAAISTRGGSTYYADSVKGRFTISRDNAKNTVYLQMNSQKPEDTAVYYCAADYLDSSYGYVYGWDDYWGQGTQVNVSS,low polyreactivity
2,QVQLVESGGGLVQAGGSLRLSCAASGSIFGGYAMGWYRQAPGKEREFVAAISRRGASTYYADSVKGRFTISRDNAKNTVYLQMNSLKPEDTAVYYCNARAYGRIDGHSATYGYWGQGTQVTVSS,high polyreactivity
3,QVQLVESGGGLVQAGGSLRLSCAASGSIFGGYAMGWYRQAPGKERELVAAISFSGGSTYYADSVKGRFTISRDNAKNTVYSQMNSLKPEDTAVYYCAADPYYSYLFDYWGQGTQVTVSS,low polyreactivity
4,QVQLVESGGGLVQAGGSLRLSCAASGSIFGGYAMGWYRQAPGKERELVAAISRSGGRTYYADSVKGRFTISRDNAKNTVYLQMNSLKPEDTAVYYCNRVTGYDSGDGYWGQGTQVTVSS,high polyreactivity
5,QVQLVESGGGLVQAGGSLRLSCAASGSIFGGYAMGWYRQAPGKERELVAAISSGGSTYYADSVKGRFTISRDNAKNTVYLQMKSLKPEDTAVYYCATSTYAYRRNSYYYTRPRFGYWGQGTQVTVSS,high polyreactivity
6,QVQLVESGGGLVQAGGSLRLSCAASGSIFGGYAMGWYRQAPGKERELVAAISSSGVRTYYADSVKGRFTISRDNAKNTVYLQMNSLKPEDTAVYYCAADRSRSIIPFDYWGQGTQVTVSS,low polyreactivity
7,QVQLVESGGGLVQAGGSLRLSCAASGSIFGGYAMGWYRQAPGKERELVADISGSGGGTYYADSVKGRFTISRDNAKNTVYLQMNSLKPEDTAVYYCARRPRTYKHWFGYWGQGTQVTVSS,low polyreactivity
8,QVQLVESGGGLVQAGGSLRLSCAASGSIFGGYAMGWYRQAPGKERELVAGITYSGDSTYYADSVKGRFTISRDNAKNTVYLQMNSLKPEDTAVYYCNADQRVDHDDFDYWGQGTQVTVSS,low polyreactivity
9,QVQLVESGGGLVQAGGSLRLSCAASGSIFGGYAMGWYRQAPVKERELVARIRVSGGRTYYSDSVKGRFTISRDNAKNTVYLQRNSLKPEDTAVYYCNALLAGRRVARGYDSWGQGTQVTVSS,high polyreactivity
10,QVQLVESGGGLVQAGGSLRLSCAASGSIFGGYTMGWYRQAPGKERELVAAISRRGGNTYYADSVKGRFTISRDNAKNTVYLQMNSLKPEDTAVYYCAVRWPSARIPVKLDYWGQGTQVTVSS,high polyreactivity
11,QVQLVESGGGLVQAGGSLRLSCAASGSIFGIYAMGWYRQAPGKERELVAAISKSGGGTYYADSVKGRFTISRDNAKNTVYLQMNSLKPEDTAVYYCNADYWQWYSYWYDYWGQGTQVTVSS,high polyreactivity
12,QVQLVESGGGLVQAGGSLRLSCAASGSIFGIYTMGWYRQAPGKERELVAAIRRSGSTNYADSVKGRFTISRDNAKNTVYLQMNSLKPEDTAVYYCAADALSDEYDYWGQGTQVTVSS,low polyreactivity
13,QVQLVESGGGLVQAGGSLRLSCAASGSIFGKNAMGWYRQAPGKERELVAAITRRGGSTYYADSVKGRFTISRDNAKNTVYLQMNSLKPEDTAVYYCNALLTGGYQDSYPDDYWGQGTQVTVSS,high polyreactivity
14,QVQLVESGGGLVQAGGSLRLSCAASGSIFGLNAMGWYRQAPGKERELVAASSVSGTRTYYADSVKGRFTISRDNAKNTGYVQMNSLKPEDTAVYYCATRRYIFYSPYRYGYWGQGTHVTVSS,high polyreactivity
15,QVQLVESGGGLVQAGGSLRLSCAASGSIFGLYAMGWYRQAPGKEREFVASITYSGGSTYYADSVKGRFTISRDNAKNTVYLQMTSLKPEDTAVYYCAAESYWGYDYWGQGTQVTVSS,high polyreactivity
16,QVQLVESGGGLVQAGGSLRLSCAASGSIFGLYAMGWYRQAPGKERELVAAINQSGGSTSYADSVKGRFTISRDNAKNTVYLQMNSLKPEDTAVYYCNRVRLNSEGFDYWGQGTQVTVSS,low polyreactivity
